For the data set the following is noted: Homo sapiens, pH 7, transition: 2, structure 1DXX; for ddG of mutation (higher = less stable) / unfolding free energy: Urea; for Tm / change of melting temperature, mutant - wild type (higher = more stable): Thermal.
Where [1] appears, read: 25 °C, Fluorescence, PBS, reversible: yes.
Where [2] appears, read: CD, sodium phosphate 0.1 M, NaCl 0.15 M, reversible: yes.
Where [3] appears, read: Fluorescence, sodium phosphate 0.1 M, NaCl 0.15 M, reversible: yes.

Consider Dystrophin, P11532 K18N, for which, under setting [1], the “ddG of mutation (higher = less stable)” value was found to be 3.7 kcal/mol and the unfolding free energy worked out at 7.5 kcal/mol. Moreover, where the note is “CD, PBS, reversible: no”, the Tm – broadly, the temperature at which the thermal transition is half complete – turned out to be 57.6 °C and the “change of melting temperature, mutant - wild type (higher = more stable)” value was -3.4 °C. Under setting [2], the Tm was 57.6 °C; the “change of melting temperature, mutant - wild type (higher = more stable)” value was -3.4 °C; the “ddG of mutation (higher = less stable)” value stood at 3.7 kcal/mol; the unfolding free energy is 7.5 kcal/mol. For the same substance, under setting [3], the “ddG of mutation (higher = less stable)” value worked out at 3.7 kcal/mol and the unfolding free energy is 7.5 kcal/mol.
